To fix the notation:
B1: Tars (protein, UniProt Q9D0R2 1-722, looked up)
Threonine--tRNA ligase 1, …: MSQEKASSPSGKMDGEKPVDASEEKRKEGGKKKSKDGGGDGGRAELNPWPEYINTRLDMYNKLKAEHDSILAEKAAKDSKPIKVTLPDGKQVDAESWKTTPYQIACGISQGLADNTVVAKVNKVVWDLDRPLETDCTLELLKFEDEEAQAVYWHSSAHIMGEAMERVYGGCLCYGPPIENGFYYDMYLEEGGVSSNDFSSLETLCKKIIKEKQTFERLEVKKETLLEMFKYNKFKCRILNEKVNTPTTTVYRCGPLIDLCRGPHVRHTGKIKTLKIHKNSSTYWEGKADMETLQRIYGISFPDPKLLKEWEKFQEEAKNRDHRKIGRDQELYFFHELSPGSCFFLPKGAYIYNTLMEFIRSEYRKRGFQEVVTPNIFNSRLWMTSGHWQHYSENMFSFEVEKEQFALKPMNCPGHCLMFDHRPRSWRELPLRLADFGVLHRNELSGALTGLTRVRRFQQDDAHIFCAMEQIEDEIKGCLDFLRTVYSVFGFSFKLNLSTRPEKFLGDIEIWNQAEKQLENSLNEFGEKWELNPGDGAFYGPKIDIQIKDAIGRYHQCATIQLDFQLPIRFNLTYVSHDGDDKKRPVIVHRAILGSVERMIAILTENYGGKWPFWLSPRQVMVVPVGPTCDEYAQKVRQQFHDAKFMADTDLDPGCTLNKKIRNAQLAQYNFILVVGEKEKASGTVNIRTRDNKVHGERTVEETVRRLQQLKQTRSKQAEEEF
B2: Rab3gap2 (protein, UniProt Q8BMG7 1-1366, looked up)
Rab3 GTPase-activating …: MACSIVQFCSFQDLQSARDFLFPHLREETPGALKRDPSKTSSWEDDSWGAWEETEPREPEEEGNTSKTQKNSWLQECVLSLSPTSDLMVIAREQKAAFLVRKWKHGDKGKEEMQFAVGWSGSVSAEEGEYVTSALCIPLASQKRSSTGRPDWTCIVVGFTSGYVRFYTEGVLLLAQLLNEDKVLQLKCRTYEIPRHPGVTEQNEELSILYPAAIVTIDGFSLFQSLRACRNQVAKAAASGNENIQPPPLAYKKWGLQDIDTIIDHASVGIMTLSPFDQMKTASNIGGFNAAIKNSPPAMSQYITVGSSPFTGFFYALEGSTQPLLSHVALAVASKLTSALFSAASGWLGWKSKHEEDTVQKQKPKMEPATPLAVRFGLPDSRRHGESICLSPCNTLAAVTDDFGRVILLDVARGIAIRMWKGYRDAQVGWIQIVEDLHERVPEKGGFSPFGNTQGPSRVAQFLVIYAPRRGILEVWNTQQGPRVGAFNVGKHCRLLYPGYKIMGLNNVTSQSWQPQTYQICLVDPVSASVKAVNVPFHLALSDKKSERAKDLHLVKKLSALLRAKSPRPDSFETEIKELILDIKYPATKKQALESILASDRLSFSCLRNVTQTLMDTLKNQELESVDEGLLQFCASKLKLLHLYESVSQLNTLDFHSDTPFSDNDLAVLLRLDDKELLKLRALLEKYKQENTKATVRFSEDADRVLPVKTFLEYLEYEKDALSIRKIGEEECVALGSFFFWKCLHGKSSTEEMCHSLESAGLSPQQLLSLLLSVWLSKEKDILDKPQSVCCLHTMLSLLSKMKVAIDETWDSQSVSPWWQQMRMACIQSENSGAALLSAHVGHSVAAQMSSGATDKKFSQMELDADAEALTDSWEALSLDTEYWKLLLRQLEDCLILQTLLHSKLSPPAAKAPSLQSEPLPRLSVKKLLEGGKGGIADSVAKWIFKQDLSPELLKCANKERDVENPDEPREDLLHLAYEQFPCSLELDVLHAHCCWEYVVQWNKDPEEARFLVRSIEHLKQILNPHVQNGIALMMWNTFLVKRFSAATYLMDKVGKSPKDRLCRRDVGMSDTALTSFLGSCLELLQTSLEADISRDEVQVPVLDTEDAWLSVEGPISIVELALEQKPIHYPLVEHHSVLCSILYASMRFSLKSVKPLALFDSKGKNAFFKDLTSIQLLPSGEMDPNFISVRQQFLLKVVSAAVQAQHSKDKDPSAEAANTHWKDLNWPGLAVDLAHHLQVSDDVIRRHYVGELYSHGADLLGEEAIFQVQDKEVLASQLLVLTGQRLAHALFHTQTKEGMELLARLPPTLCTWLKAMNPQDLQNTGVPIAATAKLVHKVMELLPEKHGQYSLALHLIDAVEAMATL
B3: Ap1b1 (protein, UniProt O35643 1-943, looked up)
AP-1 complex subunit beta-1: MTDSKYFTTTKKGEIFELKAELNSDKKEKKKEAVKKVIASMTVGKDVSALFPDVVNCMQTDNLELKKLVYLYLMNYAKSQPDMAIMAVNTFVKDCEDPNPLIRALAVRTMGCIRVDKITEYLCEPLRKCLKDEDPYVRKTAAVCVAKLHDINAQLVEDQGFLDTLKDLISDSNPMVVANAVAALSEIAESHPSSNLLDLNPQSINKLLTALNECTEWGQIFILDCLANYMPKDDREAQSICERVTPRLSHANSAVVLSAVKVLMKFMEMLSKDLDYYATLLKKLAPPLVTLLSAEPELQYVALRNINLIVQKRPEILKHEMKVFFVKYNDPIYVKLEKLDIMIRLASQANIAQVLAELKEYATEVDVDFVRKAVRAIGRCAIKVEQSAERCVSTLLDLIQTKVNYVVQEAIVVIKDIFRKYPNKYESVIATLCENLDSLDEPEARAAMIWIVGEYAERIDNADELLESFLEGFHDESTQVQLQLLTAIVKLFLKKPTETQELVQQVLSLATQDSDNPDLRDRGYIYWRLLSTDPVAAKEVVLAEKPLISEETDLIEPTLLDELICYIGTLASVYHKPPNAFVEGGRGVVHKSLPPRTASSESTESPETAPAGAPAGDQPDVIPAQGDLLGDLLNLDLGPPVSGPPLAASSVQMGAVDLLGGGLDSLIGDSNFGAPSASVAAAPAPARLGAPISSGLSDLFDLTSGVGTLSGSYVAPKAVWLPAMKAKGLEISGTFTRQAGSISMDLQLTNKALQVMTDFAIQFNRNSFGLAPAAPLQVHVPLSPNQTVEISLPLNTVGSVLKMEPLNNLQVAVKNNIDVFYFSTLYPLHVLFVEDGKMDRQMFLATWKDIANENEAQFQIRDCPLNTEAASNKLQSSNIFTVAKRNVEGQDMLYQSLKLTNGIWVLAELRIQPGNPSFTLSLKCRAPEVSQHVYQAYETILKN
B4: Copb2 (protein, UniProt O55029 1-905, looked up)
Coatomer subunit beta': MPLRLDIKRKLTARSDRVKSVDLHPTEPWMLASLYNGSVCVWNHETQTLVKTFEVCDLPVRAAKFVARKNWVVTGADDMQIRVFNYNTLERVHMFEAHSDYIRCIAVHPTQPFILTSSDDMLIKLWDWDKKWSCSQVFEGHTHYVMQIVINPKDNNQFASASLDRTIKVWQLGSSSPNFTLEGHEKGVNCIDYYSGGDKPYLISGADDRLVKIWDYQNKTCVQTLEGHAQNVSCASFHPELPIIITGSEDGTVRIWHSSTYRLESTLNYGMERVWCVASLRGSNNVALGYDEGSIIVKLGREEPAMSMDANGKIIWAKHSEVQQANLKAMGDTEIKDGERLPLAVKDMGSCEIYPQTIQHNPNGRFVVVCGDGEYIIYTAMALRNKSFGSAQEFAWAHDSSEYAIRESNSIVKIFKNFKEKKSFKPDFGAESIYGGFLLGVRSVNGLAFYDWENTELIRRIEIQPKHIFWSDSGELVCIATEESFFILKYLSEKVLAAQETHEGVTEDGIEDAFEVLGEIQEIVKTGLWVGDCFIYTSSVNRLNYYVGGEIVTIAHLDRTMYLLGYIPKDNRLYLGDKELNIVSYSLLVSVLEYQTAVMRRDFSMADKVLPTIPKEQRTRVAHFLEKQGFKQQALTVSTDPEHRFELALQLGELKIAYQLAVEAESEQKWKQLAELAISKCQFSLAQECLHHAQDYGGLLLLATASGNASMVNKLAEGAERDGKNNVAFMSYFLQGKLDACLELLIRTGRLPEAAFLARTYLPSQVSRVVKLWRENLSKVNQKAAESLADPTEYENLFPGLKEAFVVEEWVKETHADLWPAKQYPLVTPNEERNVMEEAKGFQPSRPTAQQEPDGKPASSPVIMASQTTHKEEKSLLELEVDLDNLELEDIDTTDINLDEDILDD
B5: Spr (protein, UniProt P35270 1-261, looked up)
Sepiapterin reductase: MEGGLGRAVCLLTGASRGFGRTLAPLLASLLSPGSVLVLSARNDEALRQLEAELGAERSGLRVVRVPADLGAEAGLQQLLGALRELPRPKGLQRLLLINNAGSLGDVSKGFVDLSDSTQVNNYWALNLTSMLCLTSSVLKAFPDSPGLNRTVVNISSLCALQPFKGWALYCAGKAARDMLFQVLALEEPNVRVLNYAPGPLDTDMQQLARETSVDPDMRKGLQELKAKGKLVDCKVSAQKLLSLLEKDEFKSGAHVDFYDK

The test system of the first experiment is DYT-TOR1A MEF EVs. The experiment is described as follows: Quantitative LC-MS/MS proteomics of EVs from drug-treated DYT-TOR1A MEF cultures (ritonavir, salubrinal). The format is cell-based, mouse. Details: key to RTV Corrective Direction / RTV Corrective Direction, Grwd1 / RTV Corrective Direction, Srrm2 / RTV Corrective Direction, Rbm17 / RTV Corrective Direction, Dcaf8 / RTV Corrective Direction, Edil3 / RTV Corrective Direction, Timp3 / RTV Corrective Direction, Heatr3 / RTV Corrective Direction, Brd4 / RTV Corrective Direction, P3h4 / RTV Corrective Direction, Pacsin3 / RTV Corrective Direction, Naa50 / RTV Corrective Direction, Lpar6 / RTV Corrective Direction, Ndrg1 / RTV Corrective Direction, Kntc1 / RTV Corrective Direction, Cdk11b / RTV Corrective Direction, Sumo1 / RTV Corrective Direction, Lsm4 / RTV Corrective Direction, Hmga2 / RTV Corrective Direction, Cstf1 / RTV Corrective Direction, Tes / RTV Corrective Direction, Sbno1 / RTV Corrective Direction, Unc119b / RTV Corrective Direction, Cfdp1 / RTV Corrective Direction, Sec61b: YES = protein abundance effect opposite to DYT/WT. The conditions noted are these: EV protein abundance, DYT + RTV (ritonavir) vs DYT, direction compared with DYT/WT.
For the molecule B1, the “RTV Corrective Direction” value is “YES”.

As to B2, the “RTV Corrective Direction” value is “YES”.

For B3, the “RTV Corrective Direction” value is on record as “YES”.

For B4, the “RTV Corrective Direction” value was “YES”.

For the molecule B5, the “RTV Corrective Direction” value is “YES”.

Still in this experiment, the particulars now being: EV protein abundance, ritonavir (RTV)-treated DYT vs DYT.
Consider B1, for which the “DYT + RTV/DYT Cohen's d” value was found to be 6.28.

Consider B2, for which the “DYT + RTV/DYT Cohen's d” value stood at 4.70.

Take B3: the “DYT + RTV/DYT Cohen's d” value is reported as 4.53.

With B4, the “DYT + RTV/DYT Cohen's d” value is given as 6.13.

As for B5, the “DYT + RTV/DYT Cohen's d” value is on record as 3.69.

In another experiment the test system is WT MEF EVs. In words: Quantitative LC-MS/MS proteomics of EVs from ISRIB-treated WT MEF cultures. Type of experiment: cell-based, mouse. Also on record: key to ISRIB and DYT Parallel Direction / ISRIB and DYT Parallel Direction, Ctdsp1 / ISRIB and DYT Parallel Direction, Pcdh19 / ISRIB and DYT Parallel Direction, Tspan7 / ISRIB and DYT Parallel Direction, Myo1e / ISRIB and DYT Parallel Direction, Plpp3 / ISRIB and DYT Parallel Direction, Sh3bp4 / ISRIB and DYT Parallel Direction, Dnajc7 / ISRIB and DYT Parallel Direction, Drg1 / ISRIB and DYT Parallel Direction, Maea: YES = protein abundance effect similar to DYT/WT. Conditions: EV protein abundance, ISRIB-treated WT vs WT.
Turning to B1, the “WT + ISRIB/WT Cohen's d” value is reported as −1.16.

Consider B2, for which the “WT + ISRIB/WT Cohen's d” value is reported as −0.43.

B3: the “WT + ISRIB/WT Cohen's d” value is −1.08.

On to B4, for which the “WT + ISRIB/WT Cohen's d” value is recorded as −1.11.

On to B5, for which the “WT + ISRIB/WT Cohen's d” value is given as −3.64.

Staying with this experiment, now noted: EV protein abundance, WT + ISRIB vs WT, direction compared with DYT/WT.
As to B1, the “ISRIB and DYT Parallel Direction” value is “YES”.

As for B2, the “ISRIB and DYT Parallel Direction” value is given as “YES”.

Consider B3, for which the “ISRIB and DYT Parallel Direction” value is listed as “YES”.

Regarding B4, the “ISRIB and DYT Parallel Direction” value is given as “YES”.

Regarding B5, the “ISRIB and DYT Parallel Direction” value is given as “YES”.

(Values after patent US20260266848A1, “COMPOSITIONS AND METHODS FOR DIAGNOSING AND TREATING DYSTONIA” (Duke University, priority 2023, published 2026).)
